Experimental data: patent US20100068215A1 (published 2010)
Numbering of substitutions follows the chain as printed. Names and notes keep the numbering of the source.

T1: Activin A (UniProt P08476 311-426)
T1 sequence (looked up): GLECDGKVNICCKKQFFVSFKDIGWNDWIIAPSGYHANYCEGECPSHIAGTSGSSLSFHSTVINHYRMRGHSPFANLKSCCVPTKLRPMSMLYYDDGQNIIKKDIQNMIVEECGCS

T2: Activin B (UniProt P09529 293-407)
T2 sequence (looked up): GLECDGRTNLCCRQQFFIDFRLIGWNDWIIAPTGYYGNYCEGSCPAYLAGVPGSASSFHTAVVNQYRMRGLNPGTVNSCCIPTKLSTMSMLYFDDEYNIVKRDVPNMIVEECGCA

T3: GDF8 (UniProt O14793 267-375)
T3 construct: also called myostatin; Growth and Differentiation Factor-8
T3 sequence (looked up): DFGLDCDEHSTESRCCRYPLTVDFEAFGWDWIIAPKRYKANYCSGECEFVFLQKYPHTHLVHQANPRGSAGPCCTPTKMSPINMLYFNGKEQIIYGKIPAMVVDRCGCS

B1: ActRIIB(20-128)-hFc (Fc fusion, not shown: a dimerising Fc or GST)
chain: GRGEAETRECIYYNANWELERTNQSGLERCEGEQDKRLHCYASWRNSSGTIELVKKGCWLDDFNCYDRQECVATEENPQVYFCCCEGNFCNERFTHLPEAGGPEVTYEPGGG
B2: ActRIIB(20-131)-hFc (Fc fusion, not shown: a dimerising Fc or GST)
chain: GRGEAETRECIYYNANWELERTNQSGLERCEGEQDKRLHCYASWRNSSGTIELVKKGCWLDDFNCYDRQECVATEENPQVYFCCCEGNFCNERFTHLPEAGGPEVTYEPPPTGGG
B3: ActRIIB(21-131)-hFc (Fc fusion, not shown: a dimerising Fc or GST)
chain: RGEAETRECIYYNANWELERTNQSGLERCEGEQDKRLHCYASWRNSSGTIELVKKGCWLDDFNCYDRQECVATEENPQVYFCCCEGNFCNERFTHLPEAGGPEVTYEPPPTGGG
B4: ActRIIB(22-131)-hFc (Fc fusion, not shown: a dimerising Fc or GST)
chain: GEAETRECIYYNANWELERTNQSGLERCEGEQDKRLHCYASWRNSSGTIELVKKGCWLDDFNCYDRQECVATEENPQVYFCCCEGNFCNERFTHLPEAGGPEVTYEPPPTGGG
B5: ActRIIB(23-131)-hFc (Fc fusion, not shown: a dimerising Fc or GST)
chain: EAETRECIYYNANWELERTNQSGLERCEGEQDKRLHCYASWRNSSGTIELVKKGCWLDDFNCYDRQECVATEENPQVYFCCCEGNFCNERFTHLPEAGGPEVTYEPPPTGGG
B6: ActRIIB(24-131)-hFc (Fc fusion, not shown: a dimerising Fc or GST)
chain: AETRECIYYNANWELERTNQSGLERCEGEQDKRLHCYASWRNSSGTIELVKKGCWLDDFNCYDRQECVATEENPQVYFCCCEGNFCNERFTHLPEAGGPEVTYEPPPTGGG
B7: ActRIIB(20-132)-hFc (Fc fusion, not shown: a dimerising Fc or GST)
chain: GRGEAETRECIYYNANWELERTNQSGLERCEGEQDKRLHCYASWRNSSGTIELVKKGCWLDDFNCYDRQECVATEENPQVYFCCCEGNFCNERFTHLPEAGGPEVTYEPPPTAGGG
B8: ActRIIB(20-134)-hFc (Fc fusion)
chain: GRGEAETRECIYYNANWELERTNQSGLERCEGEQDKRLHCYASWRNSSGTIELVKKGCWLDDFNCYDRQECVATEENPQVYFCCCEGNFCNERFTHLPEAGGPEVTYEPPPTAPTGGGTHTCPPCPAPELLGGPSVFLFPPKPKDTLMISRTPEVTCVVVDVSHEDPEVKFNWYVDGVEVHNAKTKPREEQYNSTYRVVSVLTVLHQDWLNGKEYKCKVSNKALPVPIEKTISKAKGQPREPQVYTLPPSREEMTKNQVSLTCLVKGFYPSDIAVEWESNGQPENNYKTTPPVLDSDGSFFLYSKLTVDKSRWQQGNVFSCSVMHEALHNHYTQKSLSLSPGK
B9: ActRIIB(L79 25-131)-hFc (Fc fusion)
chain: ETRECIYYNANWELERTNQSGLERCEGEQDKRLHCYASWRNSSGTIELVKKGCWLDDFNCYDRQECVATEENPQVYFCCCEGNFCNERFTHLPEAGGPEVTYEPPPTGGG
notes: also called ActRIIB(25-131)-hFc; not shown: human Fc domain (hFc)
B10: GDF11 (ligand, UniProt O95390 299-407, looked up)
chain: NLGLDCDEHSSESRCCRYPLTVDFEAFGWDWIIAPKRYKANYCSGQCEYMFMQKYPHTHLVQQANPRGSAGPCCTPTKMSPINMLYFNDKQQIIYGKIPGMVVDRCGCS
notes: also called Growth and Differentiation Factor-11; BMP11
B11: ActRIIB(A24N 20-134)-hFc (Fc fusion)
chain: GRGENETRECIYYNANWELERTNQSGLERCEGEQDKRLHCYASWRNSSGTIELVKKGCWLDDFNCYDRQECVATEENPQVYFCCCEGNFCNERFTHLPEAGGPEVTYEPPPTAPTGGG
notes: also called the A24N variant; not shown: human Fc domain (hFc)
B12: ActRIIB(R64K 20-134)-hFc (Fc fusion)
chain: B11 chain with N5A, R45K
notes: not shown: human Fc domain (hFc)
B13: ActRIIB(P129S, P130R 20-134)-hFc (Fc fusion)
chain: B11 chain with N5A, P110S, P111R
notes: kept as two molecules; not shown: human Fc domain (hFc)
B14: ActRIIB(R64K 20-129)-hFc (Fc fusion)
chain: GRGEAETRECIYYNANWELERTNQSGLERCEGEQDKRLHCYASWKNSSGTIELVKKGCWLDDFNCYDRQECVATEENPQVYFCCCEGNFCNERFTHLPEAGGPEVTYEPPGGG
notes: as for B12
B15: ActRIIB(K74A 20-134)-hFc (Fc fusion)
chain: B11 chain with N5A, K55A
notes: as for B12

Each binder was assayed against B10 (assay: cell-based or functional assay). Settings: not given.

B1 and B2 are within 1.5-fold of each other in IC50 (ng/mL), A-204 reporter gene assay, conditioned media: 130 ng/mL for the first, 183 ng/mL for the second.

Going from B3 to B4, the IC50 (ng/mL), A-204 reporter gene assay, conditioned media falls from 121 ng/mL to 71 ng/mL (1.7-fold).

B5 and B6 are within 1.5-fold of each other in IC50 (ng/mL), A-204 reporter gene assay, conditioned media: 60 ng/mL for the first, 69 ng/mL for the second.

Going from B7 to B8, the IC50 (ng/mL), A-204 reporter gene assay, conditioned media falls from 87 ng/mL to 45 ng/mL (1.9-fold).

Same assay, conditions: record 2

In the case of B2, the IC50 (ng/mL), A-204 reporter gene assay, conditioned media is reported as 120 ng/mL.

These binders were tested against T1, Activin A (assay: cell-based or functional assay). Settings: not given.

B1 and B2 are within 1.5-fold of each other in IC50 (ng/mL), A-204 reporter gene assay, conditioned media: 158 ng/mL for the first, 201 ng/mL for the second.

First: B3
Second: B4
The IC50 (ng/mL), A-204 reporter gene assay, conditioned media of the first is 3.2-fold higher: 325 ng/mL for the first, 100 ng/mL for the second.

Compared with B5, B6 is 2.4-fold higher in IC50 (ng/mL), A-204 reporter gene assay, conditioned media: 43 ng/mL for the first, 105 ng/mL for the second.

B7 and B8 are within 1.5-fold of each other in IC50 (ng/mL), A-204 reporter gene assay, conditioned media: 32 ng/mL for the first, 22 ng/mL for the second.

Same assay, conditions: record 2

For B2, the IC50 (ng/mL), A-204 reporter gene assay, conditioned media was 44 ng/mL.

These binders were tested against B10 (assay: Biacore, steady-state affinity fit). Settings: not given.
Protocol: (§1) The affinity of GDF Traps and other ActRIIB-hFc proteins for several ligands was evaluated in vitro with a Biacore™ instrument. Kd values were obtained by steady-state affinity fit due to the very rapid association and dissociation of the complex, which prevented accurate determination of kₒₙ and koff.

B8 gave a Kd of 0.036 nM.

Each binder was assayed against T1, Activin A (assay: Biacore, steady-state affinity fit). Settings: not given.
Protocol: as §1

B8 and B9 are within 1.5-fold of each other in Kd: 0.016 nM for the first, 0.018 nM for the second.

The binders below were run against T2, Activin B (assay: Biacore, steady-state affinity fit). Settings: not given.
Protocol: as §1

B8 and B9 are the same in Kd: 0.012 nM for the first, 0.012 nM for the second.

Each binder was assayed against B9 (assay: Biacore, steady-state affinity fit). Settings: not given.
Protocol: as §1

B10 was tested, and the Kd was 0.031 nM.

These binders were tested against B10 (assay: Biacore; ActRIIB-Fc captured by anti-hFc antibody, ligand injected). Settings: not given.
Protocol: (§2) Binding of certain ActRIIB-Fc proteins and GDF Traps to ligands was tested in a BiaCore™ assay.
(§3) The ActRIIB-Fc variants or wild-type protein were captured onto the system using an anti-hFc antibody. Ligands were injected and flowed over the captured receptor proteins.

First: B8
Second: B11
The Kd of the first is 1.6-fold higher: 0.0842 nM for the first, 0.0519 nM for the second.

With B12 the Kd was 0.0356 nM.

First: B8
Second: B11
The koff of the first is 1.8-fold higher: 0.000113 s⁻¹ for the first, 6.35e-05 s⁻¹ for the second.

With B12 the koff was 2.41e-05 s⁻¹.

These binders were tested against T3, GDF8 in the same assay as above. Settings: not given.
Protocol: as §2, §3

Compared with B8, B13 is 18-fold higher in Kd: 0.0935 nM for the first, 1.67 nM for the second. The first binds more tightly here.

Going from B12 to B14, the Kd rises from 0.21 nM to 2.15 nM (10-fold). The first binds more tightly here.

Binder B15 has a Kd of 0.0718 nM.

First: B8
Second: B13
The koff of the first is 5.2-fold lower: 3.45e-05 s⁻¹ for the first, 0.00018 s⁻¹ for the second.

Going from B12 to B14, the koff rises from 4.71e-05 s⁻¹ to 0.000209 s⁻¹ (4.4-fold).

With B15 the koff was 2.03e-05 s⁻¹.

These binders were tested against T1, Activin A in the same assay as above. Settings: not given.
Protocol: as §2, §3

Going from B8 to B11, the Kd rises from 0.0268 nM to 0.104 nM (3.9-fold). The first binds more tightly here.

Going from B13 to B12, the Kd falls from 0.0831 nM to 0.0476 nM (1.7-fold). The second binds more tightly here.

B14 showed a Kd of 0.0841 nM.

Compared with B8, B11 is 2.2-fold higher in koff: 0.000159 s⁻¹ for the first, 0.000346 s⁻¹ for the second.

B13 and B12 are within 1.5-fold of each other in koff: 0.000417 s⁻¹ for the first, 0.000325 s⁻¹ for the second.

With B14 the koff was 0.000628 s⁻¹.

Going from B8 to B11, the kon falls from 5.94e+06 M⁻¹ s⁻¹ to 3.34e+06 M⁻¹ s⁻¹ (1.8-fold).

B13 and B12 are within 1.5-fold of each other in kon: 5.02e+06 M⁻¹ s⁻¹ for the first, 6.82e+06 M⁻¹ s⁻¹ for the second.

For B14, the kon was 7.46e+06 M⁻¹ s⁻¹.
